What was measured:
NF-kB p50 homodimer [1] = biological target: T1, NF-kB p50 homodimer (UniProt P19838 P19838:1-433); test: bead fluorescence, Alexa Fluor 488-p50; settings: chain copies: 2 stated
Description: (§1) The dsDNA thioaptamer library beads were screened for the ability to bind the NF-κB p50/p50 dimer labeled with the Alexa Fluor 488 dye (Molecular Probes). After initial binding of protein, the beads were thoroughly washed with PBS with 0.1% Tween 20 to minimize nonspecific binding. Typically, a few positive beads were intensely stained when viewed by fluorescence, while the majority of the beads remained unstained as (data not shown). With the aid of a micropipette coupled to a micromanipulator, the intensely stained beads were retrieved. Only highly positive beads from several thousand were found using this method. As described below, multicolor flow cytometry and cell/bead sorting was used to automate the selection process to select the tightest binding thioaptamer-protein complexes.
(§2) Sequencing may also be obtained directly from the bead. Each individually selected bead was washed thoroughly with 8 M urea (pH 7.2) to remove the protein and was directly used for the “one-bead one-PCR” amplification using the 5′ and 3′ end primers. The PCR product was cloned using the TA Cloning procedure (Invitrogen) and sequenced on an ABI Prism 310 Genetic Analyzer (Applied Biosystems). The four thioaptamers listed in Table 3 were obtained from the library. […] The fluorescence intensity of all of the beads viewed under the fluorescence microscope was qualitatively similar to the intensity of the selected bead containing this sequence within the combinatorial library. […] Thus, the split synthesis has been used to create a “one-bead-one sequence” ODN and that PCR can be used to identify an S-ODN bound to a bead (Yang et al., 2002; Gorenstein et al, US & Foreign Patents pending, 1999 a, b, 2001, 2002).

AP-1 c-Jun = AP-1 c-Jun (Homo sapiens, UniProt P05412 P05412:1-331); test: EMSA; specific binding to recombinant human c-Jun dimers; settings: chain copies: 2 stated
Chain of AP-1 c-Jun (P05412 whole entry, one chain of several): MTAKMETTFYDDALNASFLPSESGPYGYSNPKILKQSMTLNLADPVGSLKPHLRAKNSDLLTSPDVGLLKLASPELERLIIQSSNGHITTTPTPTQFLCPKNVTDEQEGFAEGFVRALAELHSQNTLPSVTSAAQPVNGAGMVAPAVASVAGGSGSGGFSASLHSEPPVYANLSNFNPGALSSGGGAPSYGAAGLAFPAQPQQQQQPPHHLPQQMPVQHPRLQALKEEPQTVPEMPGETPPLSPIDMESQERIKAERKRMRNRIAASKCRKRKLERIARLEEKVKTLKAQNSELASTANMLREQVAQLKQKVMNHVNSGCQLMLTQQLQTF

NF-kB p50 homodimer [2] = biological target: T1, NF-kB p50 homodimer; test: resynthesised on bead; text labels it SEQ ID NO 7 but printed sequence differs; settings: chain copies: 2 stated
Description: as §2

NF-kB p50 homodimer [3] = biological target: T1, NF-kB p50 homodimer; test: bead fluorescence, Alexa Fluor 488-p50; PBS 0.1% Tween 20 wash; settings: chain copies: 2 stated
Description: as §1
Sequencing may also be obtained directly from the bead. Each individually selected bead was washed thoroughly with 8 M urea (pH 7.2) to remove the protein and was directly used for the “one-bead one-PCR” amplification using the 5′ and 3′ end primers. The PCR product was cloned using the TA Cloning procedure (Invitrogen) and sequenced on an ABI Prism 310 Genetic Analyzer (Applied Biosystems). […] The fluorescence intensity of all of the beads viewed under the fluorescence microscope was qualitatively similar to the intensity of the selected bead containing this sequence within the combinatorial library. […]

NF-kB p50 homodimer [4] = biological target: T1, NF-kB p50 homodimer; test: sub-nM binding affinity; settings: chain copies: 2 stated
[5] = biological target: NF-kB p65 (Rel A) homodimer (UniProt Q04206 Q04206:1-551)
Chain of NF-kB p65 (Rel A) homodimer (Q04206 whole entry, one chain of several): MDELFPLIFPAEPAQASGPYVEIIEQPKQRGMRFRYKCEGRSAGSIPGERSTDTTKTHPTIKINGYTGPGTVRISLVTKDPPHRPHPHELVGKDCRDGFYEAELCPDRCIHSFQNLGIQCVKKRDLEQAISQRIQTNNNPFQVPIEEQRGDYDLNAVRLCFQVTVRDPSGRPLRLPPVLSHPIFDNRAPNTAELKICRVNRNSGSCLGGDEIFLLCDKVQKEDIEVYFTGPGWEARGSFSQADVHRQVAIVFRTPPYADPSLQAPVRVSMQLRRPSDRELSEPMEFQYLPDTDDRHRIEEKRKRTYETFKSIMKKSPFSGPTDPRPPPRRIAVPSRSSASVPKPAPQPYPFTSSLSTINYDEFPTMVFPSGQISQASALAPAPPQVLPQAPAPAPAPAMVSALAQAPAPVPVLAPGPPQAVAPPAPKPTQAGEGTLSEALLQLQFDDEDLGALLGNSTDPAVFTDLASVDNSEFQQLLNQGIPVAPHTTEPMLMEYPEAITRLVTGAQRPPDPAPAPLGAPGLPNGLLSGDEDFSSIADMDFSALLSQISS

T1 sequence (P19838 1-433, one chain of several): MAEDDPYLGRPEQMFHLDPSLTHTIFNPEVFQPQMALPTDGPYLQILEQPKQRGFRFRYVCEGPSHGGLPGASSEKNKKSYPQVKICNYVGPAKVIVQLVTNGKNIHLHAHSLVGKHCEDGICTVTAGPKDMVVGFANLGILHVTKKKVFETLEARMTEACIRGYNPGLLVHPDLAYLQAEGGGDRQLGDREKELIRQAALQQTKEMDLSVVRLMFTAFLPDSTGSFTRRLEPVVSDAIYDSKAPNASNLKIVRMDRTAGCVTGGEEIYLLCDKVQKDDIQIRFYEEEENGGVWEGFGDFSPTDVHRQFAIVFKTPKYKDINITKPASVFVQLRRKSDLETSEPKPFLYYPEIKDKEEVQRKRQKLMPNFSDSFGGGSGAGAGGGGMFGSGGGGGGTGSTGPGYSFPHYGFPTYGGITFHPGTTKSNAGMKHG

B1: Split-synthesis thioaptamer SEQ 9 (dsDNA)
DNA 1: AGTTGCAGGTCAGGACCCATTT
DNA 2: AAATGGGTCCTGACCTGCAACT
modifications: PS 3' of lower-case bases in AGTTGcAGGtCaGgACCCAtTt, one strand
Question: Does B1 bind (NF-kB p50 homodimer [1])?
Answer: binds

B2: Split-synthesis thioaptamer SEQ 7 (dsDNA)
DNA 1: CTGTGCATCGAAGTTTGCATTT
DNA 2: AAATGCAAACTTCGATGCACAG
modifications: PS 3' of lower-case bases in CtGTGCatCGAaGTTtGCAtTt, one strand
Question: Does B2 bind (NF-kB p50 homodimer [1])?
Answer: binds

B3: XBY-S2 (dsDNA)
DNA 1: CCAGTGACTCAGTG
DNA 2: CACTGAGTCACTGG
modifications: phosphorodithioates, 6 in total, 3' of T at S2 positions as printed (3 per strand)
Question: Does B3 bind (AP-1 c-Jun)?
Answer: binds

B4: Resynthesised bead thioaptamer (dsDNA)
DNA 1: CTGTGAGTCGACTGATGACGGT
DNA 2: ACCGTCATCAGTCGACTCACAG
modifications: PS 3' of lower-case bases, one strand
Question: Does B4 bind (NF-kB p50 homodimer [2])?
Answer: binds

B5: Split-synthesis thioaptamer SEQ 8 (dsDNA)
DNA 1: ATGCACATCTCAGGATGACGGT
DNA 2: ACCGTCATCCTGAGATGTGCAT
modifications: PS 3' of lower-case bases in AtGcAcAtCtCaGgAtGaCGGt, one strand
Question: Does B5 bind (NF-kB p50 homodimer [1])?
Answer: binds

B6: Split-synthesis thioaptamer SEQ 6 (dsDNA)
DNA 1: TGTGCAGGGACTGATGACGGT
DNA 2: ACCGTCATCAGTCCCTGCACA
modifications: PS 3' of lower-case bases in tGTGcAGGGACTgAtGaCGGt, one strand
Question: Does B6 bind (NF-kB p50 homodimer [3])?
Answer: binds

B7: XBY-6 (dsDNA)
DNA 1: CCAGGAGATTCCAC
DNA 2: GTGGAATCTCCTGG
modifications: phosphorodithioate 3' of T9 and T10 of top strand and 3' of each T printed as S2T in bottom strand (4), 6 in total
Question: How did the Kd (NF-kB p50 homodimer [4]) turn out when B7 was run?
Answer: < 1 nM

Question: And the Kd [5]?
Answer: 1.4 nM
